Our source for the Km values is US4614714A.

Substrate in the data set: N[C@@H](CC(=O)O)C(=O)O
The data set is described as follows: purified protein, by the assay type. As to conditions: other: pH 7.4, 30.0 °C.

Procedure: The concentration of each substrate was 10 mM, and the reactions were carried out at pH 7.4 (0.1 M potassium phosphate buffer) and pH 6.0 (0.1 M acetate buffer).
That is, 1 ml of 0.1 M potassium phosphate buffer (pH 7.4) containing 10 mM sodium L-glutamate was charged into an oxygen electrode cell and 10 μl of an enzyme solution was added thereto to measure the oxygen consumption rate. One unit of enzyme was determined as the amount of enzyme which consumes 1μ mol of oxygen per minute at 30° C. in the absence of catalase (unit: hereinafter abbreviated as "U").

B1: novel L-glutamic acid oxidase (Streptomyces sp.) (protein)
chain 1: ANEMTYEQLARELLLVGPAPTNEDLKLRYLDVLIDNGLNPPGPPKRILIVGAGIAGLVAGDLLTRAGHDVTILEANANRVGGRIKTFHAKKGEPSPFADPAQYAEAGAMRLPSFHPLTLALIDKLGLKRRLFFNVDIDPQTGNQDAPVPPVFYKSFKDGKTWTNGAPSPEFKEPDKRNHTWIRTNREQVRRAQYATDPSSINEGFHLTGCETRLTVSDMVNQALEPVRDYYSVKQDDGTRVNKPFKEWLAGWADVVRDFDGYSMGRFLREYAEFSDEAVEAIGTIENMTSRLHLAFFHSFLGRSDIDPRATYWEIEGGSRMLPETLAKDLRDQIVMGQRMVRLEYYDPGRDGHHGELTGPGGPAVAIQTVPEGEPY
chain 2: AATQTWTGDLAIVTIPFSSLRFVKVTPPFSYKKRRAVIETHYDQATKVLLEFSRRWWEFTEADWKRELDAIAPGLYDYYQQWGEDDAEAALALPQSVRNLPTGLLGAHPSVDESRIGEEQVEYYRNSELR
chain 3: GGVRPATNAYGGGSTTDNPNRFMYYPSHPVPGTQGGVVLAAYSWSDDAARWDSFDDAERYGYALENLQSVHGRRIEVFYTGAGQTQSWLRDPYACGEAAVYTPHQMTAFHLDVVRPEGPVYFAGEHVSLKHAWIEGAVETAVRAAIAVNEAPVGDTGVTAAAGRRGAAAATEPMREEALTS
In general, Km refers to the substrate concentration at which the rate is half of its maximum. Take B1: the Michaelis constant (Km) was 29 mM.
